The values below are quoted from earlier work in article PMC3784502.

This series addresses APC 15-aa repeat region (Homo sapiens) (UniProt P25054).
Chain of UniProt P25054 (P25054 1020-1169): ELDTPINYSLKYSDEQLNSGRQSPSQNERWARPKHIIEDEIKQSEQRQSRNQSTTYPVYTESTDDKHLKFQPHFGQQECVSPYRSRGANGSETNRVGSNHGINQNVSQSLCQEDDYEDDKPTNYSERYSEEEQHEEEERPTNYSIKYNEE

On to “β-catenin ARM repeats 5-9 (from UniProt P35222)”, for which the Kd is 273 nM.

One may read the Kd as the free concentration of one partner at which half of the binding sites on the other are occupied at equilibrium, for simple one-to-one binding.
